Starred links: 1 amine or outer side, 2 acyl side, 3 side chain; linkers in the order of their positions; H or OH if unused. Non-standard residues stand in square brackets, D forms with d. dProc3CH2Pyrim = (2R,3S)-3-(pyrimidin-5-ylmethyl)pyrrolidine-2-carboxylic acid, O=C([C@H]1[C@@H](Cc2cncnc2)CCN1[*:1])[*:2]; dProc3Bn = (2R,3S)-3-benzylpyrrolidine-2-carboxylic acid, O=C([C@H]1[C@@H](Cc2ccccc2)CCN1[*:1])[*:2]; dProc4Bn = (2R,4R)-4-benzylpyrrolidine-2-carboxylic acid, O=C([C@H]1C[C@@H](Cc2ccccc2)CN1[*:1])[*:2]; Phe(4-(5-CO2H-2-pyrimidyl)) = N[C@@H](Cc1ccc(-c2ncc(C(=O)O)cn2)cc1)C(=O)O; Phe(4-(4-Ac-piperazinyl)) = CC(=O)N1CCN(c2ccc(C[C@H](N)C(=O)O)cc2)CC1; Trp(βS-Me,4-F) = C[C@@H](c1c[nH]c2cccc(F)c12)[C@H](N)C(=O)O; Bip(4'-COOH) = N[C@@H](Cc1ccc(-c2ccc(C(=O)O)cc2)cc1)C(=O)O; dPro(4R-Bzl(4-F)) = O=C(O)[C@H]1C[C@@H](Cc2ccc(F)cc2)CN1; Ala(pyrimidin-5-yl) = N[C@@H](Cc1cncnc1)C(=O)O; Phe(4-COOH) = N[C@@H](Cc1ccc(C(=O)O)cc1)C(=O)O; Pro(cis-4-F) = O=C(O)[C@@H]1C[C@H](F)CN1; 2Pal = N[C@@H](Cc1ccccn1)C(=O)O; 3Pal = N[C@@H](Cc1cccnc1)C(=O)O; 4Pal = N[C@@H](Cc1ccncc1)C(=O)O; Dab = NCC[C@H](N)C(=O)O; Aib = CC(C)(N)C(=O)O
Target: Recombinant human IL-1β (BioLegend 579404) (human, UniProt P01584 117-269)
Assay: cell-based or functional assay

Row | Binder | MRC5 IC50
1 | cyclo([Bip(4'-COOH)][4Pal][Phe(4-COOH)]G[Pro(cis-4-F)][Trp(βS-Me,4-F)][Aib]EW[Aib]RQSG[dPro(4R-Bzl(4-F))]) (SMILES C[C@@H](c1c[nH]c2cccc(F)c12)[C@@H]1NC(=O)[C@@H]2C[C@H](F)CN2C(=O)CNC(=O)[C@H](Cc2ccc(C(=O)O)cc2)NC(=O)[C@H](Cc2ccncc2)NC(=O)[C@H](Cc2ccc(-c3ccc(C(=O)O)cc3)cc2)NC(=O)[C@H]2C[C@@H](Cc3ccc(F)cc3)CN2C(=O)CNC(=O)[C@H](CO)NC(=O)[C@H](CCC(N)=O)NC(=O)[C@H](CCCNC(=N)N)NC(=O)C(C)(C)NC(=O)[C@H](Cc2c[nH]c3ccccc23)NC(=O)[C@H](CCC(=O)O)NC(=O)C(C)(C)NC1=O) [SEQ ID NO: 32] | 0.049 nM
2 | cyclo([Bip(4'-COOH)][4Pal][Phe(4-COOH)]G[Pro(cis-4-F)][Trp(βS-Me,4-F)][Aib]EW[Aib][Ala(pyrimidin-5-yl)]QSG[dProc3Bn]) (SMILES C[C@@H](c1c[nH]c2cccc(F)c12)[C@@H]1NC(=O)[C@@H]2C[C@H](F)CN2C(=O)CNC(=O)[C@H](Cc2ccc(C(=O)O)cc2)NC(=O)[C@H](Cc2ccncc2)NC(=O)[C@H](Cc2ccc(-c3ccc(C(=O)O)cc3)cc2)NC(=O)[C@H]2[C@@H](Cc3ccccc3)CCN2C(=O)CNC(=O)[C@H](CO)NC(=O)[C@H](CCC(N)=O)NC(=O)[C@H](Cc2cncnc2)NC(=O)C(C)(C)NC(=O)[C@H](Cc2c[nH]c3ccccc23)NC(=O)[C@H](CCC(=O)O)NC(=O)C(C)(C)NC1=O) [SEQ ID NO: 28] | 0.023 nM
3 | cyclo([Phe(4-(4-Ac-piperazinyl))][4Pal][Phe(4-COOH)]G[Pro(cis-4-F)][Trp(βS-Me,4-F)][Aib]EW[Aib][Ala(pyrimidin-5-yl)]Q[Dab]G[dPro(4R-Bzl(4-F))]) (SMILES CC(=O)N1CCN(c2ccc(C[C@@H]3NC(=O)[C@H]4C[C@@H](Cc5ccc(F)cc5)CN4C(=O)CNC(=O)[C@H](CCN)NC(=O)[C@H](CCC(N)=O)NC(=O)[C@H](Cc4cncnc4)NC(=O)C(C)(C)NC(=O)[C@H](Cc4c[nH]c5ccccc45)NC(=O)[C@H](CCC(=O)O)NC(=O)C(C)(C)NC(=O)[C@H]([C@@H](C)c4c[nH]c5cccc(F)c45)NC(=O)[C@@H]4C[C@H](F)CN4C(=O)CNC(=O)[C@H](Cc4ccc(C(=O)O)cc4)NC(=O)[C@H](Cc4ccncc4)NC3=O)cc2)CC1) [SEQ ID NO: 37] | 0.033 nM
4 | cyclo([Bip(4'-COOH)][4Pal][Phe(4-COOH)]G[Pro(cis-4-F)][Trp(βS-Me,4-F)][Aib]EW[Aib]FQRG[dPro(4R-Bzl(4-F))]) (SMILES C[C@@H](c1c[nH]c2cccc(F)c12)[C@@H]1NC(=O)[C@@H]2C[C@H](F)CN2C(=O)CNC(=O)[C@H](Cc2ccc(C(=O)O)cc2)NC(=O)[C@H](Cc2ccncc2)NC(=O)[C@H](Cc2ccc(-c3ccc(C(=O)O)cc3)cc2)NC(=O)[C@H]2C[C@@H](Cc3ccc(F)cc3)CN2C(=O)CNC(=O)[C@H](CCCNC(=N)N)NC(=O)[C@H](CCC(N)=O)NC(=O)[C@H](Cc2ccccc2)NC(=O)C(C)(C)NC(=O)[C@H](Cc2c[nH]c3ccccc23)NC(=O)[C@H](CCC(=O)O)NC(=O)C(C)(C)NC1=O) [SEQ ID NO: 35] | 0.049 nM
5 | cyclo([Bip(4'-COOH)][4Pal][Phe(4-COOH)]G[Pro(cis-4-F)][Trp(βS-Me,4-F)][Aib]EW[Aib][Ala(pyrimidin-5-yl)]Q[Dab]G[dProc4Bn]) (SMILES C[C@@H](c1c[nH]c2cccc(F)c12)[C@@H]1NC(=O)[C@@H]2C[C@H](F)CN2C(=O)CNC(=O)[C@H](Cc2ccc(C(=O)O)cc2)NC(=O)[C@H](Cc2ccncc2)NC(=O)[C@H](Cc2ccc(-c3ccc(C(=O)O)cc3)cc2)NC(=O)[C@H]2C[C@@H](Cc3ccccc3)CN2C(=O)CNC(=O)[C@H](CCN)NC(=O)[C@H](CCC(N)=O)NC(=O)[C@H](Cc2cncnc2)NC(=O)C(C)(C)NC(=O)[C@H](Cc2c[nH]c3ccccc23)NC(=O)[C@H](CCC(=O)O)NC(=O)C(C)(C)NC1=O) [SEQ ID NO: 31] | 0.024 nM
6 | cyclo([Bip(4'-COOH)][4Pal][Phe(4-COOH)]G[Pro(cis-4-F)][Trp(βS-Me,4-F)][Aib]EW[Aib][Ala(pyrimidin-5-yl)]QSG[dProc4Bn]) (SMILES C[C@@H](c1c[nH]c2cccc(F)c12)[C@@H]1NC(=O)[C@@H]2C[C@H](F)CN2C(=O)CNC(=O)[C@H](Cc2ccc(C(=O)O)cc2)NC(=O)[C@H](Cc2ccncc2)NC(=O)[C@H](Cc2ccc(-c3ccc(C(=O)O)cc3)cc2)NC(=O)[C@H]2C[C@@H](Cc3ccccc3)CN2C(=O)CNC(=O)[C@H](CO)NC(=O)[C@H](CCC(N)=O)NC(=O)[C@H](Cc2cncnc2)NC(=O)C(C)(C)NC(=O)[C@H](Cc2c[nH]c3ccccc23)NC(=O)[C@H](CCC(=O)O)NC(=O)C(C)(C)NC1=O) [SEQ ID NO: 30] | 0.026 nM
7 | cyclo([Bip(4'-COOH)][4Pal][Phe(4-COOH)]G[Pro(cis-4-F)][Trp(βS-Me,4-F)][Aib]EW[Aib][Ala(pyrimidin-5-yl)]Q[Dab]G[dProc3Bn]) [SEQ ID NO: 29] | 0.019 nM
8 | cyclo([Bip(4'-COOH)][4Pal][Phe(4-COOH)]G[Pro(cis-4-F)][Trp(βS-Me,4-F)][Aib]EW[Aib]RQ[Dab]G[dPro(4R-Bzl(4-F))]) (SMILES C[C@@H](c1c[nH]c2cccc(F)c12)[C@@H]1NC(=O)[C@@H]2C[C@H](F)CN2C(=O)CNC(=O)[C@H](Cc2ccc(C(=O)O)cc2)NC(=O)[C@H](Cc2ccncc2)NC(=O)[C@H](Cc2ccc(-c3ccc(C(=O)O)cc3)cc2)NC(=O)[C@H]2C[C@@H](Cc3ccc(F)cc3)CN2C(=O)CNC(=O)[C@H](CCN)NC(=O)[C@H](CCC(N)=O)NC(=O)[C@H](CCCNC(=N)N)NC(=O)C(C)(C)NC(=O)[C@H](Cc2c[nH]c3ccccc23)NC(=O)[C@H](CCC(=O)O)NC(=O)C(C)(C)NC1=O) [SEQ ID NO: 33] | 0.033 nM
9 | cyclo([Bip(4'-COOH)][4Pal][Phe(4-COOH)]G[Pro(cis-4-F)][Trp(βS-Me,4-F)][Aib]EW[Aib][Ala(pyrimidin-5-yl)]QSG[dPro(4R-Bzl(4-F))]) (SMILES C[C@@H](c1c[nH]c2cccc(F)c12)[C@@H]1NC(=O)[C@@H]2C[C@H](F)CN2C(=O)CNC(=O)[C@H](Cc2ccc(C(=O)O)cc2)NC(=O)[C@H](Cc2ccncc2)NC(=O)[C@H](Cc2ccc(-c3ccc(C(=O)O)cc3)cc2)NC(=O)[C@H]2C[C@@H](Cc3ccc(F)cc3)CN2C(=O)CNC(=O)[C@H](CO)NC(=O)[C@H](CCC(N)=O)NC(=O)[C@H](Cc2cncnc2)NC(=O)C(C)(C)NC(=O)[C@H](Cc2c[nH]c3ccccc23)NC(=O)[C@H](CCC(=O)O)NC(=O)C(C)(C)NC1=O) [SEQ ID NO: 3] | 0.037 nM
10 | cyclo([Phe(4-(5-CO2H-2-pyrimidyl))][4Pal][Phe(4-COOH)]G[Pro(cis-4-F)][Trp(βS-Me,4-F)][Aib]EW[Aib][Ala(pyrimidin-5-yl)]Q[Dab]G[dPro(4R-Bzl(4-F))]) (SMILES C[C@@H](c1c[nH]c2cccc(F)c12)[C@@H]1NC(=O)[C@@H]2C[C@H](F)CN2C(=O)CNC(=O)[C@H](Cc2ccc(C(=O)O)cc2)NC(=O)[C@H](Cc2ccncc2)NC(=O)[C@H](Cc2ccc(-c3ncc(C(=O)O)cn3)cc2)NC(=O)[C@H]2C[C@@H](Cc3ccc(F)cc3)CN2C(=O)CNC(=O)[C@H](CCN)NC(=O)[C@H](CCC(N)=O)NC(=O)[C@H](Cc2cncnc2)NC(=O)C(C)(C)NC(=O)[C@H](Cc2c[nH]c3ccccc23)NC(=O)[C@H](CCC(=O)O)NC(=O)C(C)(C)NC1=O) [SEQ ID NO: 38] | 0.041 nM
11 | cyclo([Bip(4'-COOH)][4Pal][Phe(4-COOH)]G[Pro(cis-4-F)][Trp(βS-Me,4-F)][Aib]EW[Aib]FQSG[dProc3CH2Pyrim]) (SMILES C[C@@H](c1c[nH]c2cccc(F)c12)[C@@H]1NC(=O)[C@@H]2C[C@H](F)CN2C(=O)CNC(=O)[C@H](Cc2ccc(C(=O)O)cc2)NC(=O)[C@H](Cc2ccncc2)NC(=O)[C@H](Cc2ccc(-c3ccc(C(=O)O)cc3)cc2)NC(=O)[C@H]2[C@@H](Cc3cncnc3)CCN2C(=O)CNC(=O)[C@H](CO)NC(=O)[C@H](CCC(N)=O)NC(=O)[C@H](Cc2ccccc2)NC(=O)C(C)(C)NC(=O)[C@H](Cc2c[nH]c3ccccc23)NC(=O)[C@H](CCC(=O)O)NC(=O)C(C)(C)NC1=O) [SEQ ID NO: 27] | 0.098 nM
12 | cyclo([Bip(4'-COOH)][4Pal][Phe(4-COOH)]G[Pro(cis-4-F)][Trp(βS-Me,4-F)][Aib]EW[Aib][3Pal]QSG[dPro(4R-Bzl(4-F))]) (SMILES C[C@@H](c1c[nH]c2cccc(F)c12)[C@@H]1NC(=O)[C@@H]2C[C@H](F)CN2C(=O)CNC(=O)[C@H](Cc2ccc(C(=O)O)cc2)NC(=O)[C@H](Cc2ccncc2)NC(=O)[C@H](Cc2ccc(-c3ccc(C(=O)O)cc3)cc2)NC(=O)[C@H]2C[C@@H](Cc3ccc(F)cc3)CN2C(=O)CNC(=O)[C@H](CO)NC(=O)[C@H](CCC(N)=O)NC(=O)[C@H](Cc2cccnc2)NC(=O)C(C)(C)NC(=O)[C@H](Cc2c[nH]c3ccccc23)NC(=O)[C@H](CCC(=O)O)NC(=O)C(C)(C)NC1=O) [SEQ ID NO: 34] | 0.032 nM
13 | cyclo([Bip(4'-COOH)][4Pal][Phe(4-COOH)]G[Pro(cis-4-F)][Trp(βS-Me,4-F)][Aib]EW[Aib][2Pal]QSG[dPro(4R-Bzl(4-F))]) (SMILES C[C@@H](c1c[nH]c2cccc(F)c12)[C@@H]1NC(=O)[C@@H]2C[C@H](F)CN2C(=O)CNC(=O)[C@H](Cc2ccc(C(=O)O)cc2)NC(=O)[C@H](Cc2ccncc2)NC(=O)[C@H](Cc2ccc(-c3ccc(C(=O)O)cc3)cc2)NC(=O)[C@H]2C[C@@H](Cc3ccc(F)cc3)CN2C(=O)CNC(=O)[C@H](CO)NC(=O)[C@H](CCC(N)=O)NC(=O)[C@H](Cc2ccccn2)NC(=O)C(C)(C)NC(=O)[C@H](Cc2c[nH]c3ccccc23)NC(=O)[C@H](CCC(=O)O)NC(=O)C(C)(C)NC1=O) [SEQ ID NO: 36] | 0.054 nM
